# From patent publication US20220177587A1, “METHODS AND USES OF VARIANT CD80 FUSION PROTEINS AND RELATED CONSTRUCTS” (Alpine Immune Sciences, Inc., priority 2018, published 2022)
# Tests used:
# PD-L1 (human) [1] = target: PD-L1 (human) (UniProt Q9NZQ7)
# CD28 (human) [2] = target: CD28 (human) (UniProt P10747)
# CD28 (human) [3] = target: CD28 (human) (UniProt P10747); remark: listed apart in the source
# PD-L1 (human) [4] = target: PD-L1 (human) (UniProt Q9NZQ7); remark: listed apart in the source
# CD28 (human) [5] = target: CD28 (human) (UniProt P10747); remark: listed apart in the source
# CD28 (human) [6] = target: CD28 (human) (UniProt P10747); assay: flow cytometry, Jurkat cells (CD28)
# PD-L1 (human) [7] = target: PD-L1 (human) (UniProt Q9NZQ7); assay: flow cytometry, MFI on PD-L1 over MFI on CD28
# PD-L1 (human) [8] = target: PD-L1 (human) (UniProt Q9NZQ7); assay: flow cytometry, CHO cells expressing PD-L1
# human CTLA-4 (human) [9] = target: human CTLA-4 (human) (UniProt P16410); assay: flow cytometry, CHO cells expressing CTLA4
# Chain of human CTLA-4 (human) (P16410 36-223): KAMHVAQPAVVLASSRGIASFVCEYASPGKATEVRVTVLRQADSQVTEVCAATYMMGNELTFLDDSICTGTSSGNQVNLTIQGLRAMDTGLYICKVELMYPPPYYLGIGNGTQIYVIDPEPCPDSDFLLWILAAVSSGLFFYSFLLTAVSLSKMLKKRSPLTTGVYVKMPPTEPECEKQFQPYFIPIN
# PD-L1 (human) [10] = target: PD-L1 (human) (UniProt Q9NZQ7); assay: flow cytometry, CHO cells expressing huPD-L1
# human CTLA-4 (human) [11] = target: human CTLA-4 (human) (UniProt P16410); assay: flow cytometry, CHO cells expressing huCTLA4
# PD-L1 (human) [12] = target: PD-L1 (human) (UniProt Q9NZQ7); remark: listed apart in the source
# CD28 (human) [13] = target: CD28 (human) (UniProt P10747); assay: flow cytometry, Jurkat/IL2 reporter cells (endogenous CD28)
# PD-L1 (human) [14] = target: PD-L1 (human) (UniProt Q9NZQ7); assay: flow cytometry, CHO cells expressing huPD-L1; remark: listed apart in the source
# human CTLA-4 (human) [15] = target: human CTLA-4 (human) (UniProt P16410); assay: flow cytometry, CHO cells expressing huCTLA-4
# CD28 (human) [16] = target: CD28 (human) (UniProt P10747); assay: flow cytometry, Jurkat/IL2 reporter cells (CD28)
# Chain of PD-L1 (human) (Q9NZQ7 19-290): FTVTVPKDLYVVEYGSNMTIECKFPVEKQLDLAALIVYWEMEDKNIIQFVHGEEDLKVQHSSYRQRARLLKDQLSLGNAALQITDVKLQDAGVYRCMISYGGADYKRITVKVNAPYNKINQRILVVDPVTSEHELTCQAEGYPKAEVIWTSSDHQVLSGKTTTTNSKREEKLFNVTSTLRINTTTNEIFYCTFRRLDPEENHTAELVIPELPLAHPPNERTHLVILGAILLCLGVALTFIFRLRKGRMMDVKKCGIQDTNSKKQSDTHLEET
substance,measurement,setting,value
CD80 IgV-Fc V22D/E24D/E35D/M47L/V68M (Fc fusion),RLU at 5.0 nM: Fold Increase over WT CD80-IgV-Fc,PD-L1 (human) [1],2.4 fold
same,RLU at 5.0 nM: Fold Increase over WT CD80-IgV-Fc,CD28 (human) [2],2.4 fold
CD80 E35D/D46V/L85Q IgV-Fc (inert) (Fc fusion),"Jurkat/IL2 reporter RLU at 50 nM, CHO/OKT3 aAPC without PD-L1",CD28 (human) [3],720 RLU
same,"IL-2 release, primary T cells + K562/OKT3/PD-L1, 100 nM",PD-L1 (human) [4],1430
same,"IL-2 release, primary T cells + K562/OKT3/PD-L1, 100 nM",CD28 (human) [5],1430
CD80 H18Y/E35D/V68M/L85M/R94Q IgV-Fc (Fc fusion),Fold change to WT CD80,CD28 (human) [6],0.4 fold
same,MFI at 33.3 nM,CD28 (human) [6],14 MFI
same,Ratio of PDL1:CD28,PD-L1 (human) [7],1040
same,Fold change to WT CD80,PD-L1 (human) [8],280 fold
same,MFI at 33.3 nM,PD-L1 (human) [8],14400 MFI
same,Fold change to WT CD80,human CTLA-4 (human) [9],11.3 fold
same,MFI at 33.3 nM,human CTLA-4 (human) [9],19800 MFI
variant CD80 IgV-Fc E35D/M47I/K54R/L85E (Fc fusion),MFI at 33.3 nM,PD-L1 (human) [10],36900 MFI
same,MFI at 33.3 nM,human CTLA-4 (human) [11],8660 MFI
CD80 E24D/E35D/M47L/V68M/E95V/L97Q IgV-Fc (Fc fusion),Fold change to WT CD80,CD28 (human) [6],0.5 fold
same,MFI at 33.3 nM,CD28 (human) [6],15 MFI
same,Ratio of PDL1:CD28,PD-L1 (human) [7],1270
same,Fold change to WT CD80,PD-L1 (human) [8],362 fold
same,MFI at 33.3 nM,PD-L1 (human) [8],18600 MFI
same,Fold change to WT CD80,human CTLA-4 (human) [9],8.8 fold
same,MFI at 33.3 nM,human CTLA-4 (human) [9],15500 MFI
CD80 E35G/K54E/A71D/L72P IgV-Fc (inert) (Fc fusion),"Jurkat/IL2 reporter RLU at 50 nM, CHO/OKT3/PD-L1 aAPC",PD-L1 (human) [12],476 RLU
same,"Jurkat/IL2 reporter RLU at 50 nM, CHO/OKT3/PD-L1 aAPC",CD28 (human) [3],476 RLU
same,"Jurkat/IL2 reporter RLU at 50 nM, CHO/OKT3 aAPC without PD-L1",CD28 (human) [3],440 RLU
same,"IL-2 release, primary T cells + K562/OKT3/PD-L1, 100 nM",PD-L1 (human) [4],59
same,"IL-2 release, primary T cells + K562/OKT3/PD-L1, 100 nM",CD28 (human) [5],59
variant CD80 IgV-Fc E35D/M47V/T62A/A71G/V83A/Y87H/L97M (Fc fusion),MFI at 33.3 nM,CD28 (human) [13],305 MFI
same,MFI at 33.3 nM,PD-L1 (human) [10],77500 MFI
same,MFI at 33.3 nM,human CTLA-4 (human) [11],18100 MFI
CD80 E35D IgV-Fc (inert) (Fc fusion),"Jurkat/IL2 reporter RLU at 50 nM, CHO/OKT3/PD-L1 aAPC",PD-L1 (human) [12],1610 RLU
same,"Jurkat/IL2 reporter RLU at 50 nM, CHO/OKT3/PD-L1 aAPC",CD28 (human) [3],1610 RLU
same,"Jurkat/IL2 reporter RLU at 50 nM, CHO/OKT3 aAPC without PD-L1",CD28 (human) [3],448 RLU
same,"IL-2 release, primary T cells + K562/OKT3/PD-L1, 100 nM",PD-L1 (human) [4],2740
same,"IL-2 release, primary T cells + K562/OKT3/PD-L1, 100 nM",CD28 (human) [5],2740
CD80 IgV-Fc E35D/M47I/V68M/Y87N (Fc fusion),RLU at 5.0 nM: Fold Increase over WT CD80-IgV-Fc,PD-L1 (human) [1],2.4 fold
same,RLU at 5.0 nM: Fold Increase over WT CD80-IgV-Fc,CD28 (human) [2],2.4 fold
variant CD80 IgV-Fc E35D/M47L/L85Q (Fc fusion),MFI at 33.3 nM,CD28 (human) [13],646 MFI
same,MFI at 33.3 nM,PD-L1 (human) [14],6100 MFI
same,MFI at 33.3 nM,human CTLA-4 (human) [15],12900 MFI
same,MFI at 33.3 nM,CD28 (human) [16],46.3 MFI
same,MFI at 33.3 nM,PD-L1 (human) [10],33200 MFI
same,MFI at 33.3 nM,human CTLA-4 (human) [11],336000 MFI
CD80 E35D/M47I/L70M IgV-Fc (inert) (Fc fusion),"Jurkat/IL2 reporter RLU at 50 nM, CHO/OKT3/PD-L1 aAPC",PD-L1 (human) [12],2630 RLU
same,"Jurkat/IL2 reporter RLU at 50 nM, CHO/OKT3/PD-L1 aAPC",CD28 (human) [3],2630 RLU
same,"Jurkat/IL2 reporter RLU at 50 nM, CHO/OKT3 aAPC without PD-L1",CD28 (human) [3],600 RLU
same,"IL-2 release, primary T cells + K562/OKT3/PD-L1, 100 nM",PD-L1 (human) [4],8390
same,"IL-2 release, primary T cells + K562/OKT3/PD-L1, 100 nM",CD28 (human) [5],8390
variant CD80 IgV-Fc Q33L/E35D/M47V/T79A (Fc fusion),MFI at 33.3 nM,PD-L1 (human) [10],62100 MFI
same,MFI at 33.3 nM,human CTLA-4 (human) [11],28900 MFI
CD80 E35D/M43I/M47L/V68M IgV-Fc (Fc fusion),Fold change to WT CD80,CD28 (human) [6],48.3 fold
same,MFI at 33.3 nM,CD28 (human) [6],1520 MFI
same,Ratio of PDL1:CD28,PD-L1 (human) [7],11.1
same,Fold change to WT CD80,PD-L1 (human) [8],328 fold
same,MFI at 33.3 nM,PD-L1 (human) [8],16900 MFI
same,Fold change to WT CD80,human CTLA-4 (human) [9],9.3 fold
same,MFI at 33.3 nM,human CTLA-4 (human) [9],16200 MFI
CD80 E35D/M47L IgV-Fc (inert) (Fc fusion),"Jurkat/IL2 reporter RLU at 50 nM, CHO/OKT3 aAPC without PD-L1",CD28 (human) [3],817 RLU
same,"IL-2 release, primary T cells + K562/OKT3/PD-L1, 100 nM",PD-L1 (human) [4],7530
same,"IL-2 release, primary T cells + K562/OKT3/PD-L1, 100 nM",CD28 (human) [5],7530
CD80 IgV-Fc E35D/D46E/M47V/V68M/L85Q (Fc fusion),RLU at 5.0 nM: Fold Increase over WT CD80-IgV-Fc,PD-L1 (human) [1],2.5 fold
same,RLU at 5.0 nM: Fold Increase over WT CD80-IgV-Fc,CD28 (human) [2],2.5 fold
variant CD80 IgV-Fc Q27H/E35D/M47L/L85Q/R94Q/E95K (Fc fusion),MFI at 33.3 nM,CD28 (human) [13],282 MFI
same,MFI at 33.3 nM,PD-L1 (human) [10],36100 MFI
CD80 A26E/E35D/M47L/L85Q IgV-Fc (inert) (Fc fusion),"Jurkat/IL2 reporter RLU at 50 nM, CHO/OKT3/PD-L1 aAPC",PD-L1 (human) [12],2000 RLU
same,"Jurkat/IL2 reporter RLU at 50 nM, CHO/OKT3/PD-L1 aAPC",CD28 (human) [3],2000 RLU
same,"Jurkat/IL2 reporter RLU at 50 nM, CHO/OKT3 aAPC without PD-L1",CD28 (human) [3],432 RLU
same,"IL-2 release, primary T cells + K562/OKT3/PD-L1, 100 nM",PD-L1 (human) [4],1460
same,"IL-2 release, primary T cells + K562/OKT3/PD-L1, 100 nM",CD28 (human) [5],1460
